Measurements as given in article PMC8155523, “Non-covalent Interaction With SUMO Enhances the Activity of Human Cytomegalovirus Protein IE1” (Frontiers in Cell and Developmental Biology, 2021).

B1: IE1-SIM1 peptide (peptide)
peptide: RPLITKPEVISVMKRRIEE
notes: Human Cytomegalovirus Immediate-Early protein 1 (IE1), peptide around SIM1 (VISV, aa 335-338); source: synthetic peptide (Lifetein)
B2: IE1-SIM2 peptide (peptide)
peptide: PATIPLSSVIVAENSDQEE
notes: Human Cytomegalovirus Immediate-Early protein 1 (IE1), peptide around SIM2 (VIVA, aa 416-419); source: synthetic peptide (Lifetein)

Target: T1, SUMO1 (UniProt P63165 1-97)
T1 construct: SUMO1, expressed from SUMO1-pQE80L; Uniformly 15N-labelled for NMR; Plasmid obtained from Rama Koti, TIFR, Mumbai; also called 15N-SUMO1; 15N-wt-SUMO1; source: E. coli BL21 (DE3), 15NH4Cl-M9 medium, purified (Ni-NTA, Superdex 75)
Assay: NMR titration; IE1-SIM peptides titrated into ~0.3 mM 15N-SUMO1 or 15N-SUMO2 up to 1:4 (SUMO:SIM); 15N-HSQC, 298K, 800 MHz; PBS, 5 mM DTT, 10% D2O; CSPs fit to a 1:1 model
Conditions: both partners purified

T1 sequence (P63165 1-97): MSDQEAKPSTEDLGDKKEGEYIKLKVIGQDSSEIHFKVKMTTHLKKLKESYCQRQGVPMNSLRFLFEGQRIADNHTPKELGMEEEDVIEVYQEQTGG

| Binder | Kd [µM] |
| --- | --- |
| B1 | 134 ± 23.2 |
| B2 | 136 ± 32 |
